The values that follow come from patent US20260364215A1, “Radiopharmaceutical Compositions Targeting Ephrin Type-A Receptor 2 and Uses Thereof” (PeptiDream Inc., priority 2022, published 2026).

Numbered stars: 1 amine (or outer) side, 2 acyl side, 3 side chain; on linkers, the order of the positions; unused ones are H or OH. Bridge positions count the residues as written; N and C are the ends. Square brackets hold non-standard residues; d marks the D form. Side chains are listed from the residue outwards. Peptide text beside a SMILES is read from it. * marks the point of attachment. DOTA(Lu) = O=C1CN2CCN3CCN(CC(=O)*)CCN(CC2)CC(=O)[O][Lu]([O]1)[O]C(=O)C3; DOTA = O=C(O)CN1CCN(CC(=O)O)CCN(CC(=O)*)CCN(CC(=O)O)CC1; Trp(1-Me,7-Cl) = Cn1cc(C[C@H](N)C(=O)O)c2cccc(Cl)c21; dPhe(3-CONH2) = NC(=O)c1cccc(C[C@@H](N)C(=O)O)c1; Piperazinyl(4-CH2COOH) = O=C(O)CN1CCN(*)CC1; Trp(1-Me) = Cn1cc(C[C@H](N)C(=O)O)c2ccccc21; NMe3Pal = CN[C@@H](Cc1cccnc1)C(=O)O; hArg = N=C(N)NCCCC[C@H](N)C(=O)O; Gly(cBu) = N[C@H](C(=O)O)C1CCC1; NMeE = CN[C@@H](CCC(=O)O)C(=O)O; Aad = N[C@@H](CCCC(=O)O)C(=O)O; CO = O=C([*:1])[*:2]

Series [1] addresses T1, Recombinant Human EphA2 Fc Protein (Homo sapiens, UniProt P29317).
T1 construct: purchased Elabscience
The series can be described thus: Interaction analysis (kinetics, KD) of peptides and conjugates against EphA2 by SPR, Biacore T200, single-cycle kinetics (Examples B15 and B22). It is filed as binding. To be noted: conjugates, Biacore T200 according to Example B15, Table B16; read-out: SPR Kd. The method, boiled down: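 Biacore T200 SPR with Fc-tagged human EphA2 captured via anti-human antibody; running buffer HBS-P+ pH 7.4 with 1% DMSO, 25 °C. Five serial dilutions of peptide or conjugate run by single-cycle kinetics; KD from ka and kd after baseline subtraction.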
Background: In SPR one partner is held on a chip, and binding of the other changes the refractive index at the surface.

The target of series [2] is T2, EphA2 (Biotin-Avi-His-EphA2; Fc-EphA2 where the peptide had a biotin) (Homo sapiens, UniProt P29317).
T2 construct: His; purchased SinoBiologicals 13926-H27H-B
Description: Surface plasmon resonance (SPR) peptide binding, Biacore 8K, immobilized EphA2, single cycle kinetics (Example C7). To be noted: 25 °C, Langmuir 1:1. On the procedure: Example C7. Surface Plasmon Resonance (SPR)
For analysis of peptide binding, a Biacore 8K instrument was used utilizing a SA chip. Biotin-Avi-His-EphA2 (SinoBiologicals, 13926-H27H-B) was immobilized on the chip using streptavidin-biotin chemistry at 25 °C in HBS-P+ buffer (10 mM HEPES, 150 mM NaCl, 0.05% Tween-20, pH 7.4) to a level of 1000-2000 RU (dependent on the analyte molecular weight). […] A dilution series of peptides was prepared in this buffer with a final DMSO concentration of 0.1% with a top peptide concentration between 10-100 nM and 9 further 2-fold dilutions. The SPR analysis was run at 25 °C at a flow rate of 30 μL/min in HBS-P+ with 0.1% DMSO running buffer and with a 120 second association and 1,200 second dissociation using single cycle kinetics methodology. All data was analyzed using Biacore Insight Evaluation Software version 4. Data was fitted using a Langmuir 1:1 binding model.

Series [3] is described as follows: Plasma stability (% remaining of test compound in CD-1 (ICR) mouse plasma at 37 °C; Example C1). It is filed as in vitro ADME. On the procedure:
Example C1. Plasma Stability
The pooled frozen CD-1 (ICR) mouse plasma was thawed in a water bath at 37 °C prior to experiment. Plasma was centrifuged at 4000 rpm for 5 min and the clots were removed if any. pH was adjusted to 7.4±0.1 if required.
Plasma (98 μL) and test compounds (2 μL, 100 μM, in DMSO) or reference compound propantheline bromide (2 μL, 100 μM in 40% v/v MeOH/H2O) were added to the individual wells of a 96-well microtiter plate in duplicate. The plate was incubated at 37 °C. During the incubation, aliquots were withdrawn at 0, 10, 30, 60, 120, and 300 minutes. 100 μL 4% H3PO4 and 800 μL of stop solution (200 ng/mL tolbutamide and 200 ng/mL labetalol in 100% CH3CN) were added to precipitate unwanted proteins. After mixing thoroughly, the quenched aliquots were centrifuged at 4,000 rpm for 20 min. Aliquots (100 μL) of supernatant were transferred to a new plate. The samples were shaken at 800 rpm for 10 min before performing LC-MS/MS analysis.
The analytes were detected by a multiple reaction monitoring method using a SCIEX Triple Quad 6500+ system equipped with an ACQUITY UPLC HSS T3 column (100 Å, 1.8 μm, 2.1 mm×30 mm). Mobile phase A: water with 0.1% formic acid; Mobile phase B: CH3CN with 0.1% formic acid.
(§1) The % remaining of test compound after incubation in plasma was calculated using the following equation:
(§2) % Remaining=100×(PAR(t)/PAR(t0)), where PAR is the peak area ratio of analyte versus internal standard (IS)

The nature of series [4]: Plasma stability (% remaining and T1/2 of test compound in human plasma; Table C1). It is filed as in vitro ADME. On the procedure: as §1, §2

T2 sequence (P29317 24-534 limits assumed): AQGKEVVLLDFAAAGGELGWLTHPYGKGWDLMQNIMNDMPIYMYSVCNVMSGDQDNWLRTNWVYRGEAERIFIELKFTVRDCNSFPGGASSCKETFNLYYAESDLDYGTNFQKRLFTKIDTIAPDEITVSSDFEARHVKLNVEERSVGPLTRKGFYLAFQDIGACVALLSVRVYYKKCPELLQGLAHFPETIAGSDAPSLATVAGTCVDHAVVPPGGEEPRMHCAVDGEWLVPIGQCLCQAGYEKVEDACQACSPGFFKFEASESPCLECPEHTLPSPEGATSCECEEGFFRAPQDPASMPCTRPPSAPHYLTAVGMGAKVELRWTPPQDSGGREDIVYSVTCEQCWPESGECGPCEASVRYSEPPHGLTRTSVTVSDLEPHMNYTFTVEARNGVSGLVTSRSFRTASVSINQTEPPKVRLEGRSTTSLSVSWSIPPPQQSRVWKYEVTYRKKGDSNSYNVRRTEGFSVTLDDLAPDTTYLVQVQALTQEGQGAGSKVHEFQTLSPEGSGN
T1 sequence (P29317 24-534 limits assumed): as above

Regarding `CC(C)C[C@@H]1NC(=O)[C@H](CC(N)=O)NC(=O)[C@H](Cc2cccnc2)N(C)C(=O)[C@@H](C)NC(=O)CSC[C@@H](C(=O)N[C@H](CCCCNC(=O)CN2CCN3CCN4CCN(CC2)CC(=O)[O][Lu]([O]C(=O)C3)[O]C(=O)C4)C(N)=O)NC(=O)[C@H](CCCC(N)=O)NC(=O)[C@H]([C@@H](C)O)NC(=O)[C@H](Cc2cn(C)c3ccccc23)NC(=O)[C@H](CCCCNC(=O)N2CCN(CC(=O)O)CC2)NC(=O)[C@H](Cc2cn(C)c3ccccc23)NC(=O)[C@H](CCC(=O)O)N(C)C(=O)[C@H](CCCC(N)=O)NC1=O` [PDC_EphA2-00007196-C302] ({CH2CO}-[dA][NMe3Pal]NL[Aad](NH2)[NMeE][Trp(1-Me)]K([CO-Piperazinyl(4-CH2COOH)])[Trp(1-Me)]T[Aad](NH2)C[dK](DOTA(Lu))-NH2; thioether N-12), in series [1], the Kd is less than 1 nM. The “KD” value in series [2] came to 3.74e-10 M⁻¹. Besides, in series [3] (0 min), the “% Remaining Mouse” value is given as 100.0%. The molecule further returned a share remaining at 2 h, 2 µM in series [3] (pH 7.4, 120 min) of 99.4%. The half-life at 2 µM in series [3] (pH 7.4, read-out: T1/2 (min) Mouse) was greater than 289 min. The molecule also had a half-life in series [4] greater than 4.82 h. For the same molecule, the “% Remaining Human” value in series [4] (0 min) came out at 100.0%. In series [4] (120 min), this molecule displayed an amount remaining at 2 h of 96.3%.
As for `C[C@@H](O)[C@@H]1NC(=O)[C@H](Cc2cn(C)c3ccccc23)NC(=O)[C@H](CCCCNC(=O)N2CCN(CC(=O)O)CC2)NC(=O)[C@H](Cc2cn(C)c3c(Cl)cccc23)NC(=O)[C@H](CCC(=O)O)N(C)C(=O)[C@H](CCCC(N)=O)NC(=O)[C@H](C2CCC2)NC(=O)[C@H](CC(N)=O)NC(=O)[C@H](Cc2cccnc2)N(C)C(=O)[C@@H](Cc2cccc(C(N)=O)c2)NC(=O)CSC[C@@H](C(=O)N[C@H](CCCCNC(=O)CN2CCN(CC(=O)O)CCN(CC(=O)O)CCN(CC(=O)O)CC2)C(N)=O)NC(=O)[C@H](CCCCNC(=N)N)NC1=O.[Lu+3]` [PDC_EphA2-00019443-C302] ({CH2CO}-[dPhe(3-CONH2)][NMe3Pal]N[Gly(cBu)][Aad](NH2)[NMeE][Trp(1-Me,7-Cl)]K([CO-Piperazinyl(4-CH2COOH)])[Trp(1-Me)]T[hArg]C[dK](DOTA)-NH2; thioether N-12), in series [1], the Kd is less than 1 nM. The “KD” value in series [2] is 2.7e-11 M⁻¹.

What is called Kd is a measure of binding affinity in units of concentration. For orientation: amount remaining means the share of the starting amount still present when the sample was taken. The low end stands for a greater loss, the high end for greater stability.
